Patent publication US20230117827A1, “COMPOSITION COMPRISING A FLUOROPHORE LABELLED UPAR-TARGETING PEPTIDE CONJUGATE” (FLUOGUIDE A/S, priority 2020, published 2023)

Assays:
Type in all cases: physicochemical
[1] = Solubilization of composition 1 judged by absorbance and emission spectra
Protocol: A composition comprising the fluorophore labelled receptor-targeting peptide conjugate ICG-Glu-Glu-AE105 (called composition 1 below) is soluble in DMSO in concentrations up to 20 mg/ml with a peak spectral absorption at 800 nm similar to indocyanine green (ICG) currently used in the clinic for visual assessment of vessels, blood flow and related tissue perfusion, fig. A.
An aqueous formulation of composition 1 of 1.0 mg/ml has been developed according to the present invention, using excipients suitable for pharmaceutical formulation development.
A. Excitation was conducted at 775 nm.
Further Explanation of the Figs. A-D A. Absorbance and emission spectrum of FG001 dissolved in DMSO and PBS at 1.0 mg/ml. Excitation wavelength: 775 nm. Analytical samples for absorbance measurement were further diluted 200-fold and 400-1000-fold for emission spectra. B. Absorbance spectrum of FG001 dissolved in 1) 10 mM sodium phosphate, 45 mg/ml mannitol, pH 7.4, 2) 10 mM sodium phosphate, 45 mg/ml mannitol, 1% Polysorbate 20, pH 7.4 and 3) PBS, 0.2 g/ml HBC. Analytical samples for absorbance measurement were further diluted 200-fold and 400-1000-fold for emission spectra C. […] Excitation wavelength: 775 nm. Analytical samples for absorbance measurement were further diluted 200-fold and 400-1000-fold for emission spectra

[2] = Long term storage stability of lyophilizate, purity by RP-HPLC; conditions: for Purity, main peak following storage at 5° C. / Purity, main peak following storage at 25° C./60% RH / Purity, main peak following storage at 40° C./75% RH: 780 nm
Protocol: (§1) The long term stability of composition 1 at a concentration of 1.0 mg/ml was evaluated as a lyophilizate in one formulation comprising 10 mM sodium phosphate, 26 mg/ml mannitol, 9.0 mg/ml glycine, 0.025% Polysorbate 20, pH 7.4 Composition 1 was weighed into the formulation buffer and pH was adjusted to 7.4 using sodium hydroxide or hydrochloric acid. The bulk formulation was sterile filtered through suitable sterile filters and filled into 6R vials. The vials were placed with stoppers in a lyophilizer and lyophilized using a standard program. Following lyophilization all vials were capped, visual inspected and stored protected from light at 5° C., 25° C./60% RH or 40° C./75% RH for up to 9 months
(§2) At the selected timepoint, a vial is removed from the stability chamber for visual inspection of the lyophilizate and water content determination. Another vial is reconstituted with water for injection prior to analyzing the corresponding liquid formulation for purity, pH and visual appearance.
RP-HPLC to detect purity of reconstituted composition 1: Mobile phase A was composed of purified water/acetonitrile (80/20 v/v) with 5 mM ammonium acetate and mobile phase B was composed of purified water/acetonitrile (10/90 v/v) with 5 mM ammonium acetate. A Waters XBridge BEH Peptide, 3.5 μm, 130Å, 4.6×150 mm column was used. Flow rate was set to 1.0 mL/min,detection was at a wavelength of 780 nm, the column running temperature was 45° C. The sample cooler temperature was set at 5° C. and the sample injection load was 10 μg.

[3] = Long term storage stability, water content of lyophilizate by Karl Fisher titration
Protocol: as §1, §2
The water content of the lyophilizate was determined by Karl Fisher titration according to Ph. Eur. 2.5.32.

[4] = Long term storage stability, visual inspection and pH; conditions: for pH: reconstituted
Protocol: as §1, §2

[5] = Example 4 lyophilizate, 0 months
[6] = Example 4 lyophilizate, 1 months
[7] = Example 4 lyophilizate, 3 months
[8] = Example 4 lyophilizate, 6 months
[9] = Example 4 lyophilizate, 9 months
[10] = storage at 25° C./60% RH, 0 months
[11] = storage at 25° C./60% RH, 1 months
[12] = storage at 25° C./60% RH, 3 months
[13] = storage at 25° C./60% RH, 6 months
[14] = storage at 25° C./60% RH, 9 months

CC(C)C[C@H](NC(=O)[C@H](Cc1ccc(O)cc1)NC(=O)C(CCCNC(=N)N)NC(=O)C(CO)NC(=O)C(Cc1ccccc1)NC(=O)[C@H](CC1CCCCC1)NC(=O)C(CC(=O)O)NC(=O)C(CCC(=O)O)NC(=O)C(CCC(=O)O)NC(=O)CCCCCN1\C(=C/C=C/C=C/C=C/C2=[N+](CCCCS(=O)(=O)[O-])c3ccc4ccccc4c3C2(C)C)C(C)(C)c2c1ccc1ccccc21)C(=O)N[C@@H](Cc1c[nH]c2ccccc12)C(=O)N[C@@H](CO)C(=O)O (stereo partly drawn) [composition 1, ICG-Glu-Glu-AE105]
peak absorption ([1]; 10 mM sodium phosphate, 45 mg/ml mannitol, pH 7.4): shifted towards the peak absorption at 800 nm | solubility ([1]; DMSO, read-out: soluble in DMSO in concentrations): ≤ 20 mg/mL | peak spectral absorption ([1]; in DMSO): 800 nm | spectral absorption in the range from 700 nm to 825 nm ([1]; phosphate buffer saline, 1.0 mg/ml): clear double peak | emission spectrum ([1]; phosphate buffer saline, 1.0 mg/ml, excitation 775 nm): significantly lower fluorescent peak at 800 nm | solubility in phosphate buffer saline ([1]; tested concentration 1.0 mg/ml): not soluble | Purity, main peak following storage at 5° C. ([2]; Example 4 lyophilizate (mannitol/glycine/0.025% Polysorbate 20), 0 months): 96.6 area % | Purity, main peak following storage at 25° C./60% RH [2, 5]: 96.6 area % | Purity, main peak following storage at 40° C./75% RH [2, 5]: 96.6 area % | Purity, main peak following storage at 5° C. [2, 6]: 96.2 area % | Purity, main peak following storage at 25° C./60% RH [2, 6]: 96.2 area % | Purity, main peak following storage at 40° C./75% RH [2, 6]: 96.0 area % | Purity, main peak following storage at 5° C. [2, 7]: 96.5 area % | Purity, main peak following storage at 25° C./60% RH [2, 7]: 96.6 area % | Purity, main peak following storage at 40° C./75% RH [2, 7]: 95.9 area % | Purity, main peak following storage at 5° C. [2, 8]: 96.3 area % | Purity, main peak following storage at 25° C./60% RH [2, 8]: 95.6 area % | Purity, main peak following storage at 40° C./75% RH [2, 8]: 93.9 area % | Purity, main peak following storage at 5° C. [2, 9]: 96.2 area % | Purity, main peak following storage at 25° C./60% RH [2, 9]: 96.2 area % | time shown to be stable, judged by the purity determination ([2]; selected formulation, storage conditions 5° C. and 25° C./60% RH): up to 9 months | residual water content ([3]; following 9 months storage at 25° C./60% RH): around 2% | Residual water ([3]; storage at 5° C., 0 months): 1.0% | Residual water ([3]; storage at 5° C., 1 months): 1.2% | Residual water ([3]; storage at 5° C., 3 months): 1.8% | Residual water ([3]; storage at 5° C., 6 months): 1.7% | Residual water ([3]; storage at 5° C., 9 months): 1.6% | Residual water [3, 10]: 1.0% | Residual water [3, 11]: 1.8% | Residual water [3, 12]: 1.7% | Residual water [3, 13]: 1.7% | Residual water [3, 14]: 1.9% | pH ([4]; storage at 5° C., 0 months): 7.4 | pH ([4]; storage at 5° C., 1 months): 7.3 | pH ([4]; storage at 5° C., 3 months): 7.4 | pH ([4]; storage at 5° C., 6 months): 7.3 | pH ([4]; storage at 5° C., 9 months): 7.4 | pH [4, 10]: 7.4 | pH [4, 11]: 7.3 | pH [4, 12]: 7.4 | pH [4, 13]: 7.3 | pH [4, 14]: 7.4 | pH, appearance of the lyophilizate and clarity of reconstituted liquid formulation ([4]; up to 9 months storage): remains unchaged
